Patent publication US10766940 (GOVERNORS OF THE UNIVERSITY OF ALBERTA, dated 2020)
Positions of bridges follow the written chain, without caps; N, C: chain ends. No end group written: not given here.

Tests used:
[1] = target: T1, AMY1 receptor (heterodimeric complex of the calcitonin receptor and RAMP1) (UniProt P30988 25-474; O60894 27-148); test: flow cytometry cell uptake, AMY1 transfected cells; reference other fragments
T1 construct: whole, on cells; also called amylin receptor subtype 1

[2] = target: T2, AMY3 receptor (heterodimeric complex of the calcitonin receptor and RAMP3) (UniProt P30988 25-474; O60896 24-148); test: cell-based or functional assay
T2 sequence (looked up) 1: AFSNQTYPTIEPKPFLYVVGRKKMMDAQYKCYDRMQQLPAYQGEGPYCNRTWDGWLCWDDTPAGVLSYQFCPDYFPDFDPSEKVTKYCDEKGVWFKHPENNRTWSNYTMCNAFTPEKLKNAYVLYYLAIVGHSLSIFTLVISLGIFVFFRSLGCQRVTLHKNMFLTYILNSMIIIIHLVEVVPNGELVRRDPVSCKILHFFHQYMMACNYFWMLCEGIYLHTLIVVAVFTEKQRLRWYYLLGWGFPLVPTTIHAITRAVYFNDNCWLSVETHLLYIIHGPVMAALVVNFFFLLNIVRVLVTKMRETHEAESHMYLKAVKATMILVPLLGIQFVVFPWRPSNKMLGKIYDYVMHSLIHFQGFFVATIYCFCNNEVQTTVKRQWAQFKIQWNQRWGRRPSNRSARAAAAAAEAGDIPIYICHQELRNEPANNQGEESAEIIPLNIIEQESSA
T2 sequence (looked up) 2: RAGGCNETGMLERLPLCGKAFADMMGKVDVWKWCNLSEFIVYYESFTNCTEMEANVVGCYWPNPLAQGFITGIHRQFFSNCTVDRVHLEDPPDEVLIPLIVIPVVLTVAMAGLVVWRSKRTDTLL

[3] = target: T2, AMY3 receptor (heterodimeric complex of …); test: flow cytometry, Cy5.5-labelled peptide 5 µM; wild type HEK293 against AMY3-HEK cells
[4] = target: amylin receptor in mouse brain (mouse, UniProt Q60755 42-533); test: cell-based or functional assay
amylin receptor in mouse brain, sequence (Q60755 42-533): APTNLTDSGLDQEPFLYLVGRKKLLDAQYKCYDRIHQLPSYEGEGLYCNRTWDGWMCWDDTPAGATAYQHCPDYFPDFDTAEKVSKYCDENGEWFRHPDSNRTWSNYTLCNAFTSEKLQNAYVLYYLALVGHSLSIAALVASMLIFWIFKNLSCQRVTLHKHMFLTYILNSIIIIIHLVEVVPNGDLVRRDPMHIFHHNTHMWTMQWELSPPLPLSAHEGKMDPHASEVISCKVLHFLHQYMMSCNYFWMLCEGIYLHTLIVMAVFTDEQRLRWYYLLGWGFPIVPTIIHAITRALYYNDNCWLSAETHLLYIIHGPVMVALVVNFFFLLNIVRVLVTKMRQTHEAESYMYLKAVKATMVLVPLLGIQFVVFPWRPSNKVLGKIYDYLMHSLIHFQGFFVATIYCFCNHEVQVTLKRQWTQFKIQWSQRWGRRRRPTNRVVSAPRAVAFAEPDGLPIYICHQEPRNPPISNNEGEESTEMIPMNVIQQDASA

[5] = target: T2, AMY3 receptor (heterodimeric complex of …); test: flow cytometry, dose-dependent binding of Cy5-labelled peptide (0.5-10 µM) to AMY3-HEK cells
Method: (§1) d) For flow cytometry studies, AMY3-293 cells were used to determine cell binding and uptake and binding of Cy5-AC253, and Cy5-cAC253 peptides. Cell were plated at a density of 1.5 ×10^5 cells/well and cultured overnight in 12-well plates at 37° C. Cy5 labelled peptides (5 μM) were added and incubated for 1 hour at 37° C. in serum free media. The culture media was discarded, and cell monolayers were washed with PBS containing 2 mM EDTA and 0.5% BSA adjusted to pH 7.4 at 37° C. Cells were washed again with cold buffer and incubated with 0.25% trypsin to remove cell surface-associated fluorophores. Cells were dispersed in FACS solution (10% FBS in PBS) and analyzed using a FACSCanto II flow cytometer (BD Biosciences, USA) selecting a detection window between 720 and 840 nm. Fluorescence histograms and dot plots were generated using the data were processed with FLOWJO software (Tree Star, Inc, USA). At least 10,000 gated events per sample were analyzed. The experiment was repeated with different peptide concentration ranging from 0.5-10 μM, and mean fluorescence intensity of peptides was extrapolated. To further study the cell uptake mechanism, cells were preincubated with cytochalasin D (cytoD, […]) for 30 minutes, and the experiment was repeated as above. […]

[6] = target: T2, AMY3 receptor (heterodimeric complex of …); test: flow cytometry, Cy5-labelled peptide 5 µM, AMY3-HEK cells; reference AC253
Method: as §1

T1 sequence (O60894 27-148, one chain of several): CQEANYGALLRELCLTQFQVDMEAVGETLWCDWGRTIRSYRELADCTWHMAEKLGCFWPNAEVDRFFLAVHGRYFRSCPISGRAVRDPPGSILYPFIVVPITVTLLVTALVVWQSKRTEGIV

## RLQTYPRTNTGS (not fully specified (N-terminus, C-terminus), 12-residue fragment of AC253) [peptide fragment R10 of AC253]
[1]
  fold increase in specific binding compared to other fragments: 3 fold

B1: AC253 (peptide)
peptide: Ac-LGRLSQELHRLQTYPRTNTGSNTY-NH2
modifications: not fully specified; printed as Ac-LGRLSQELHRLQTYPRTNTGSNTY; also: labelled form for binding: Cy5/Cy5.5 on extra N-terminal beta-alanine spacer
notes: Synthetic 24-residue peptide; cAMP assay used the unlabelled peptide; also called linear AC253; Cy5-AC253
[2]
  IC50 for inhibition of hAmylin evoked cAMP increase in AMY3-HEK cells: ~850 nM
[3]
  fold decrease in binding and uptake in wild type HEK293 cells compared to AMY3-HEK cells: 10 fold

B2: cyclized AC253 (peptide)
peptide: CLGRLSQELHRLQTYPRTNTGSNTYC-NH2
modifications: disulfide 1-26; also: flanking Cys said to be D-Cys in one passage
notes: AC253 with one cysteine added at each terminus, cyclized by a disulfide; cAMP assay used the unlabelled peptide; also called cAC253; cyclic AC253
[2]
  IC50 for inhibition of hAmylin evoked cAMP increase in AMY3-HEK cells: ~300 nM
  fold potency versus AC253 in inhibiting AMY3 receptor activity (cAMP): 3 fold
[4]
  reduction in brain fluorescence after ip injection of Cy5-cAC253 mixed with 5-fold excess of unlabeled cAC253 (in vivo competition, ex vivo NIRF imaging): 75%
[5]
  Kd: 1450 nM
[3]
  fold decrease in binding and uptake in wild type HEK293 cells compared to AMY3-HEK cells: 10 fold
[6]
  fold binding and uptake compared to AC253: 3 fold
